Results on one molecule are retold here after article PMC8865655.

For this assay, the target named is Cry2-mCh-METTL3 (wild type, full-length construct), Q86U44. Nature of the assay: FRET or BRET; FLIM-FRET in live HEK293T; EGFP fusion as donor, Cry2-mCh-METTL3 (mCherry) as acceptor; photons collected from inside condensates formed after blue light illumination (30 seconds). The note with it: remark: other sources report otherwise.
Cry2-mCh-METTL3 (wild type, full-length construct), Q86U44, sequence (Q86U44 whole entry, the tested form may be a part): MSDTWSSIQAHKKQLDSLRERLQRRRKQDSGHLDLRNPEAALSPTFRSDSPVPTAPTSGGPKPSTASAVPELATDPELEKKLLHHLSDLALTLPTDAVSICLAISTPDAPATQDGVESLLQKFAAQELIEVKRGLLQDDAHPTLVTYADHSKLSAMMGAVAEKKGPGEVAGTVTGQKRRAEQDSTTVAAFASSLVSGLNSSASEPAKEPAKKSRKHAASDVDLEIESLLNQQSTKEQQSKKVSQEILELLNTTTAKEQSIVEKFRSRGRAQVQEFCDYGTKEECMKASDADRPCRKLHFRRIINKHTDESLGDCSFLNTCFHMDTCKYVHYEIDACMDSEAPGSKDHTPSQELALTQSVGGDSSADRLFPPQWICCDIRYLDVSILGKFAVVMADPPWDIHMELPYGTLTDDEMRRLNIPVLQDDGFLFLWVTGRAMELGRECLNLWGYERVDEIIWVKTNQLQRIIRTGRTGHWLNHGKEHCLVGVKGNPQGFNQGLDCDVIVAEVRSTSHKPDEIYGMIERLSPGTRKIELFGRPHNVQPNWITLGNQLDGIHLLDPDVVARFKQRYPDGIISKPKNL

B1: EGFP-WTAP, Q15007 1-396 (natural protein)
chain: MTNEEPLPKKVRLSETDFKVMARDELILRWKQYEAYVQALEGKYTDLNSNDVTGLRESEEKLKQQQQESARRENILVMRLATKEQEMQECTTQIQYLKQVQQPSVAQLRSTMVDPAINLFFLKMKGELEQTKDKLEQAQNELSAWKFTPDSQTGKKLMAKCRMLIQENQELGRQLSQGRIAQLEAELALQKKYSEELKSSQDELNDFIIQLDEEVEGMQSTILVLQQQLKETRQQLAQYQQQQSQASAPSTSRTTASEPVEQSEATSKDCSRLTNGPSNGSSSRQRTSGSGFHREGNTTEDDFPSSPGNGNKSSNSSEERTGRGGSGYVNQLSAGYESVDSPTGSENSLTHQSNDTDSSHDPQEEKAVSGKGNRTVGSRHVQNGLDSSVNVQGSVL
In turn, B1 came in with an EGFP fluorescence lifetime (FLIM-FRET) of 2.01 ns.
